Data: article PMC4141763, “Reciprocal Activating Crosstalk between c-Met and Caveolin 1 Promotes Invasive Phenotype in Hepatocellular Carcinoma” (PLoS ONE, 2014)

Biological target: T1, c-Met, the receptor for Hepatocyte Growth Factor (HGF) (human (endogenous in SNU-449 and …, UniProt P08581 25-1390))
T1 construct: precipitated with agarose-conjugated anti-c-Met antibody sc-161 AC; Endogenous receptor in a lysate; the co-IP blot detects total c-Met; also called c-Met Tyrosine Kinase; source: endogenous, Mahlavu whole cell lysate
Test: co-IP; SNU-449 whole cell lysates (modified NP-40 buffer) precipitated with agarose-conjugated anti-c-Met antibody (sc-161 AC), blotted for CAV1 and c-Met; serum-starved cells untreated or exposed to HGF (40 ng/mL) for 15, 30 and 60 min; IgG as IP control
Settings: partners not purified

T1 sequence (P08581 25-1390): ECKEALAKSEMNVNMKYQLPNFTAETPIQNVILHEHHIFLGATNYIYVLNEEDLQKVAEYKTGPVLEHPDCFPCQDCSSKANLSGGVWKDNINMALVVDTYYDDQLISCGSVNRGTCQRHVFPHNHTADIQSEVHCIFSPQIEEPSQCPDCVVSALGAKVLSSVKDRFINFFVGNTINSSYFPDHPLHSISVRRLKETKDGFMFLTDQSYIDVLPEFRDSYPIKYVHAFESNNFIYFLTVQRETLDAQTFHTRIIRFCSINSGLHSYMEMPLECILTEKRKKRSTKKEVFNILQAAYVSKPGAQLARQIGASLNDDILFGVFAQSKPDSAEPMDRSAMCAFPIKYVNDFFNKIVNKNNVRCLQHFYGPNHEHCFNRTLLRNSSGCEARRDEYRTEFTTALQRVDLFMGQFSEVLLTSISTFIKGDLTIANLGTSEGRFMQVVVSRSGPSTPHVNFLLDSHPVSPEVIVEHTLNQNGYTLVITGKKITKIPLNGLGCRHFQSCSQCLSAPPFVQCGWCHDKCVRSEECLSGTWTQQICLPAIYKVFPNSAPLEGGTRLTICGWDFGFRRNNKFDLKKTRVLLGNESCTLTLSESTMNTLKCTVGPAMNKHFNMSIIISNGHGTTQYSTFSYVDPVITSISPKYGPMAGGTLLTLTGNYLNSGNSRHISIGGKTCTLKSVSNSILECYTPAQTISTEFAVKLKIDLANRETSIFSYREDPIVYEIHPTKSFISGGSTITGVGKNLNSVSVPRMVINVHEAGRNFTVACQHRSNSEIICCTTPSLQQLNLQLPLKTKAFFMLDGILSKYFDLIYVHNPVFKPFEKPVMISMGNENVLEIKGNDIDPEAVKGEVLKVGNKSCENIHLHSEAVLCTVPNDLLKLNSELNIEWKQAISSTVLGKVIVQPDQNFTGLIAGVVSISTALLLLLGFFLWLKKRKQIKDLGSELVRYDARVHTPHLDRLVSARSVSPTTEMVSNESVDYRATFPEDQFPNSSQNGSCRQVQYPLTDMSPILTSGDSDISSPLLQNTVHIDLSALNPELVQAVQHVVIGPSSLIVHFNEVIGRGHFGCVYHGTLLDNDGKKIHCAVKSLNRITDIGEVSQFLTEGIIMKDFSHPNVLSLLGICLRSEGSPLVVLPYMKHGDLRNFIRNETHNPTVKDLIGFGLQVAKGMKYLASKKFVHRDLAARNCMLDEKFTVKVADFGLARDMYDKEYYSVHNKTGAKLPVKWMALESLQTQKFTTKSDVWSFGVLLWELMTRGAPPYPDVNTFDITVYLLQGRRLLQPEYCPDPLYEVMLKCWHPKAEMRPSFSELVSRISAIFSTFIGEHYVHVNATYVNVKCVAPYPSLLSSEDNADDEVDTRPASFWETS

fold increase in the amount co-immunoprecipitated upon HGF stimulation, against no HGF: ≥ 3 fold
B1: Caveolin 1 (CAV1) (natural protein, UniProt Q03135 1-178, looked up)
chain: MSGGKYVDSEGHLYTVPIREQGNIYKPNNKAMADELSEKQVYDAHTKEIDLVNRDPKHLNDDVVKIDFEDVIAEPEGTHSFDGIWKASFTTFTVTKYWFYRLLSALFGIPMALIWGIYFAILSFLHIWAVVPCIKSFLIEIQCISRVYSIYVHTVCDPLFEAVGKIFSNVRINLQKEI
notes: detected by Western blot with an antibody to CAV1; Endogenous protein; the co-IP blot detects total CAV1; source: endogenous, Mahlavu whole cell lysate
